Data taken from patent US7799901B2, “Modulators of the function of FAS receptors and other proteins” (Yeda Research and Development Co. Ltd., priority 1995, dated 2010).
Entries after “also recorded” stand apart in the source; their conditions may differ.

Legend:
[1] = tested on: p55-R-induced cytotoxicity in 293-EBNA cells; assay: Death of 293-EBNA cells induced by over-expression of p55-R; assay type: cell-based, human; details: co-transfection
Protocol: (§1) In brief, 293-EBNA cells, MCF7 human breast carcinoma cells and HeLa HtTA-1 cells were grown in Dulbecco's modified Eagle's minimal essential medium supplemented with 10% fetal calf serum, nonessential amino acids, 100 U/ml penicillin and 100 μg/ml streptomycin. Cell tissue culture dishes (5×10^5 293-EBNA cells, 3×10^5 s MCF7 cells or 3×10^5 HeLa cells in 6-cm dishes) were transiently transfected, using the calcium phosphate precipitation method, with the cDNAs of the indicated proteins together with the β-galactosidase expression vector. In the experiments presented in FIGS. 14A-D and 15, each dish was transfected with 3.5 μg of the indicated MACH construct and 1.5 μg of pSV-β-gal. In the experiments presented in FIGS. 16A-D and 17-19, each dish was transfected with 2.5 μg of the indicated MACH or MORT1 construct (or, as control, empty vector) and 1.5 μg of pSV-β-gal. The cells were rinsed 6 to 10 h after transfection. The 293-EBNA and MCF7 cells were incubated for a further 18 h without additional treatment. […] The extent of cell death at the end of the incubation periods was assessed by determination of β-galactosidase expression, as described by Kumar et al, 1994. […]
(§2) In particular, FIGS. 16A-D show morphology of 293-EBNA cells in which cell death was induced by transient expression of a chimera comprised of the extracellular domain of the p55-R (amino acids 1-168) fused to the transmembrane and intracellular domains of Fas/APO1 (amino acids 153-319) (p55-Fas chimera) (FIGS. 16A and 16B), or by expression of the p55-R (FIGS. 16C and 16D), and of cells that were protected from these cytotoxic effects by their simultaneous transfection with MACHα1 (C360S) (FIGS. 16B and 16D). […] FIG. 17 illustrates the quantification of death induced in 293-EBNA cells by their transfection with p55-Fas chimera or with p55-R, together with an empty vector, a MORT1 deletion mutant lacking the MACH-binding region (MORT1 (92-208)), or MACHα molecules containing a nonfunctional CED3/ICE region. […] Data are from at least two independent experiments and are expressed as in FIGS. 14A-F and 15.

[2] = tested on: breast carcinoma MCF7 cells; assay: Cell death on overexpression of MACH isoforms in MCF7 cells; assay type: cell-based, human; details: β-galactosidase-expressing cells with apoptopic morphology, 20 h after transfection
Protocol: (§3) To explore the involvement of MACH in cell-death induction, the effect of overexpression of various MACH isoforms on cell viability was examined. The test was performed by transfecting MACH expression vectors together with a β-galactosidase expression vector as a transfection marker into human embryonic kidney 293-EBNA cells and breast carcinoma MCF7 cells.
(§4) In brief, 293-EBNA cells, MCF7 human breast carcinoma cells and HeLa HtTA-1 cells were grown in Dulbecco's modified Eagle's minimal essential medium supplemented with 10% fetal calf serum, nonessential amino acids, 100 U/ml penicillin and 100 μg/ml streptomycin. Cell tissue culture dishes (5×10^5 293-EBNA cells, 3×10^5 s MCF7 cells or 3×10^5 HeLa cells in 6-cm dishes) were transiently transfected, using the calcium phosphate precipitation method, with the cDNAs of the indicated proteins together with the β-galactosidase expression vector. In the experiments presented in FIGS. 14A-D and 15, each dish was transfected with 3.5 μg of the indicated MACH construct and 1.5 μg of pSV-β-gal. In the experiments presented in FIGS. 16A-D and 17-19, each dish was transfected with 2.5 μg of the indicated MACH or MORT1 construct (or, as control, empty vector) and 1.5 μg of pSV-β-gal. The cells were rinsed 6 to 10 h after transfection. The 293-EBNA and MCF7 cells were incubated for a further 18 h without additional treatment. The HeLa cells were incubated for 26 h after transfection and-then for 5 h in the presence of either anti-Fas.APO1 antibody (CH11, 0.5 μg/ml) or TNF (100 ng/ml), together with cycloheximide (10 μg/ml). The extent of cell death at the end of the incubation periods was assessed by determination of β-galactosidase expression, as described by Kumar et al, 1994.
(§5) In particular, FIGS. 14A-D show the morphology of human embryonic kidney 293-EBNA cells transiently expressing the indicated MACH isoforms. The arrows (FIG. 14B) point to apoptopic cells. Photographs were taken 26 h after transfection. […] Data are from three independent experiments with the 293-EBNA cells and two independent experiments with the MCF7 cells.

[3] = tested on: Fas/APO1-induced death of HeLa cells; assay: Death of HeLa cells expressing Fas/APO1 induced by anti-Fas/APO1 antibody and cycloheximide; assay type: cell-based, human; details: HeLa cells transiently expressing Fas/APO1; CH11 0.5 μg/ml, cycloheximide 10 μg/ml
Protocol: as §4
The HeLa cells were made responsive to Fas/APO1 by transient expression of this receptor. […] These protective effects indicate that MACHα is a necessary component of both the Fas/APO1- and the p55-R-induced signaling cascades for cell death.
In particular, FIGS. 16A-D show morphology of 293-EBNA cells in which cell death was induced by transient expression of a chimera comprised of the extracellular domain of the p55-R (amino acids 1-168) fused to the transmembrane and intracellular domains of Fas/APO1 (amino acids 153-319) (p55-Fas chimera) (FIGS. 16A and 16B), or by expression of the p55-R (FIGS. 16C and 16D), and of cells that were protected from these cytotoxic effects by their simultaneous transfection with MACHα1 (C360S) (FIGS. 16B and 16D). Photographs were taken 26 h after transfection. FIG. 17 illustrates the quantification of death induced in 293-EBNA cells by their transfection with p55-Fas chimera or with p55-R, together with an empty vector, a MORT1 deletion mutant lacking the MACH-binding region (MORT1 (92-208)), or MACHα molecules containing a nonfunctional CED3/ICE region. […] Data are from at least two independent experiments and are expressed as in FIGS. 14A-F and 15.

[4] = tested on: human embryonic kidney 293-EBNA cells; assay: Cell death on overexpression of MACH isoforms in 293-EBNA cells; assay type: cell-based; details: β-galactosidase-expressing cells with apoptopic morphology, 20 h after transfection
Protocol: as §3, §4, §5

[5] = tested on: HeLa cells; assay: Cell death on overexpression of MACH isoforms in HeLa cells; assay type: cell-based; details: FIG. 19
Protocol: as §4
To examine the involvement of the CED3/ICE homology region within the MACHα isoforms in their apoptopic effects, cells were transfected with the expression vector for the MACHβ1 isoform, which lacks the CED3/ICE homology region, as well as with expression vectors for MACHα3, which lacks an N-terminal part of the region, and with expression vectors for MACHα1 (C360S) and for a C-terminally truncated mutant of MACHα1 (MACHα1 (1-415)), which lacks one of the residues believed to be critical for CED3/ICE protease function (corresponding to Ser347 in ICE). […]

[6] = tested on: TNF-induced death of HeLa cells; assay: Death of HeLa cells induced by TNF and cycloheximide; assay type: cell-based, human; details: TNF 100 ng/ml, cycloheximide 10 μg/ml
Protocol: as §4, with “1994. […]” for “1994.”

[7] = tested on: Fas/APO1 cytotoxicity (p55-Fas chimera) in 293-EBNA cells; assay type: cell-based, human; details: co-transfection
Protocol: as §1, §2

B1: MACHα3: MACH isoform, cDNA SEQ ID NO: 19, amino acid SEQ ID NO: 20; lacks an N-terminal part of the CED3/ICE region (protein)
chain: KCKLDDDMNLLDIFIEMEKRVILGEGKLDILKRVCAQINKSLLKIINDYEEFSKGALTTTFEELHFEIKPHDDCTVEQIYEILKIYQLMDHSNMDCFICCILSHGDKGIIYGTDGQEAPIYELTSQFTGLKCPSLAGKPKVFFIQACQGDNYQKGIPVETDSEEQPYLEMDLSSPQTRYIPDEADFLLGMATVNNCVSYRNPAEGTWYIQSLCQSLRERCPRGDDILTILTEVNYEVSNKDDKKNMGKQMPQPTFTLRKKLVFPSD
protection against p55-R-induced cytotoxicity [1]: effective protection | cell death of transfected MCF7 cells [2]: No death | protection against death induced by anti-Fas/APO1 antibody and cycloheximide [3]: effective protection; also recorded: prevention | cell death of transfected 293-EBNA cells [4]: No death | cytotoxicity in transfected HeLa cells [5]: somewhat cytotoxic | protection against death induced by TNF and cycloheximide [6]: effective protection | protection against Fas/APO1 cytotoxicity (p55-Fas chimera) [7]: effective protection
